Measured values from the supplement of paper PMC7125110.
± gives the standard error. For part of these data: Fewer inactive variants are shown than the library holds.

B1: glmS ribozyme (parent)
chain: AUAAAAGCGCCAGAACUACAGAAAUGUAGUUGACGAGGAGGAGGUUUAUCGAAUUUUCGGCGGAUGCCUCCAAA

Columns and labels:
Settings in all cases: with glucosamine-6-phosphate
glucosamine-6-phosphate [1] = variants of: B1; test: kcat; higher = faster cleavage; RNA array
Method in brief: (§1)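 Tracking of barcoded ribozyme variants used a hybridised Cy3 probe at 37 °C, after in situ transcription by E. coli RNA polymerase on sequenced MiSeq chips. The flowed solution held 40 μM to 10 mM glucosamine-6-phosphate in HEPES/KCl/Mg(OAc)2 buffer, and imaging ran over ~14 h. kobs was taken from exponential decay fits of normalised per-tile medians, and kcat and KM from weighted Michaelis–Menten fits.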

glucosamine-6-phosphate [2] = variants of: B1; test: KM; higher = weaker cofactor use; RNA array
Method in brief: as §1

glucosamine-6-phosphate [3] = variants of: B1; test: self-cleavage kobs at 40 uM GlcN6P; higher = faster cleavage; RNA array
Method in brief: as §1

glucosamine-6-phosphate [4] = variants of: B1; test: self-cleavage kobs at 160 uM GlcN6P; higher = faster cleavage; RNA array
Method in brief: as §1

glucosamine-6-phosphate [5] = variants of: B1; test: self-cleavage kobs at 640 uM GlcN6P; higher = faster cleavage; RNA array
Method in brief: as §1

glucosamine-6-phosphate [6] = variants of: B1; test: self-cleavage kobs at 2500 uM GlcN6P; higher = faster cleavage; RNA array
Method in brief: as §1

glucosamine-6-phosphate [7] = variants of: B1; test: self-cleavage kobs at 10000 uM GlcN6P; higher = faster cleavage; RNA array
Method in brief: as §1

## U55G A64G
glucosamine-6-phosphate [1]
  kcat: 0.0303 ± 0.0073 s⁻¹
glucosamine-6-phosphate [2]
  KM: 1980 ± 600 µM
glucosamine-6-phosphate [3]
  self-cleavage kobs at 40 uM GlcN6P: 0.000723 ± 0.00013 s⁻¹
glucosamine-6-phosphate [4]
  self-cleavage kobs at 160 uM GlcN6P: 0.00204 ± 0.00033 s⁻¹
glucosamine-6-phosphate [5]
  self-cleavage kobs at 640 uM GlcN6P: 0.0075 ± 0.00091 s⁻¹
glucosamine-6-phosphate [6]
  self-cleavage kobs at 2500 uM GlcN6P: 0.0149 ± 0.0036 s⁻¹
glucosamine-6-phosphate [7]
  self-cleavage kobs at 10000 uM GlcN6P: 0.0308 ± 0.0088 s⁻¹

## G38A C58G C70U
glucosamine-6-phosphate [1]
  kcat: 1.98e-05 ± 8.1e-06 s⁻¹

## A39U U54G
glucosamine-6-phosphate [1]
  kcat: 0.0173 ± 0.0074 s⁻¹
glucosamine-6-phosphate [3]
  self-cleavage kobs at 40 uM GlcN6P: 0.000704 ± 0.00014 s⁻¹
glucosamine-6-phosphate [4]
  self-cleavage kobs at 160 uM GlcN6P: 0.00169 ± 0.00043 s⁻¹
glucosamine-6-phosphate [5]
  self-cleavage kobs at 640 uM GlcN6P: 0.00453 ± 0.001 s⁻¹
glucosamine-6-phosphate [7]
  self-cleavage kobs at 10000 uM GlcN6P: 0.018 ± 0.0044 s⁻¹

## G37U C71G
glucosamine-6-phosphate [1]
  kcat: 1.72e-05 ± 4.2e-06 s⁻¹

## G29A C58A
glucosamine-6-phosphate [1]
  kcat: 0.000173 ± 2.2e-06 s⁻¹
glucosamine-6-phosphate [2]
  KM: 875 ± 32 µM
glucosamine-6-phosphate [5]
  self-cleavage kobs at 640 uM GlcN6P: 7.35e-05 ± 1.6e-05 s⁻¹
glucosamine-6-phosphate [6]
  self-cleavage kobs at 2500 uM GlcN6P: 0.000126 ± 2.9e-05 s⁻¹
glucosamine-6-phosphate [7]
  self-cleavage kobs at 10000 uM GlcN6P: 0.00016 ± 3e-05 s⁻¹

## C16U A36C
glucosamine-6-phosphate [1]
  kcat: < 1e-05 s⁻¹
glucosamine-6-phosphate [2]
  KM: 28.4 ± 13 µM
glucosamine-6-phosphate [3]
  self-cleavage kobs at 40 uM GlcN6P: < 1e-05 s⁻¹
glucosamine-6-phosphate [5]
  self-cleavage kobs at 640 uM GlcN6P: < 1e-05 s⁻¹
glucosamine-6-phosphate [6]
  self-cleavage kobs at 2500 uM GlcN6P: < 1e-05 s⁻¹

## A14U G40U
glucosamine-6-phosphate [1]
  kcat: 0.00162 ± 0.0004 s⁻¹
glucosamine-6-phosphate [2]
  KM: 4230 ± 1500 µM
glucosamine-6-phosphate [3]
  self-cleavage kobs at 40 uM GlcN6P: 3.43e-05 ± 1.2e-05 s⁻¹
glucosamine-6-phosphate [4]
  self-cleavage kobs at 160 uM GlcN6P: 6.75e-05 ± 1.2e-05 s⁻¹
glucosamine-6-phosphate [5]
  self-cleavage kobs at 640 uM GlcN6P: 0.000205 ± 3e-05 s⁻¹
glucosamine-6-phosphate [6]
  self-cleavage kobs at 2500 uM GlcN6P: 0.000535 ± 7.1e-05 s⁻¹
glucosamine-6-phosphate [7]
  self-cleavage kobs at 10000 uM GlcN6P: 0.00123 ± 0.00015 s⁻¹

## G13A U65A
glucosamine-6-phosphate [1]
  kcat: 0.000116 ± 3.9e-05 s⁻¹
glucosamine-6-phosphate [3]
  self-cleavage kobs at 40 uM GlcN6P: < 1e-05 s⁻¹
glucosamine-6-phosphate [6]
  self-cleavage kobs at 2500 uM GlcN6P: 2.1e-05 ± 9.1e-06 s⁻¹
glucosamine-6-phosphate [7]
  self-cleavage kobs at 10000 uM GlcN6P: 5.81e-05 ± 8.7e-06 s⁻¹

## C11A A42G
glucosamine-6-phosphate [1]
  kcat: 0.000337 ± 5.9e-05 s⁻¹
glucosamine-6-phosphate [2]
  KM: 3420 ± 1100 µM
glucosamine-6-phosphate [5]
  self-cleavage kobs at 640 uM GlcN6P: 4.77e-05 ± 1.4e-05 s⁻¹
glucosamine-6-phosphate [6]
  self-cleavage kobs at 2500 uM GlcN6P: 0.000184 ± 4.7e-05 s⁻¹
glucosamine-6-phosphate [7]
  self-cleavage kobs at 10000 uM GlcN6P: 0.000239 ± 5e-05 s⁻¹

## U55C C67U
glucosamine-6-phosphate [1]
  kcat: 0.000234 ± 1.4e-05 s⁻¹
glucosamine-6-phosphate [2]
  KM: 499 ± 120 µM
glucosamine-6-phosphate [5]
  self-cleavage kobs at 640 uM GlcN6P: 0.000134 ± 2.5e-05 s⁻¹
glucosamine-6-phosphate [6]
  self-cleavage kobs at 2500 uM GlcN6P: 0.000173 ± 4.2e-05 s⁻¹
glucosamine-6-phosphate [7]
  self-cleavage kobs at 10000 uM GlcN6P: 0.000231 ± 3e-05 s⁻¹

## A12U G37U
glucosamine-6-phosphate [1]
  kcat: 3.51e-05 ± 1.1e-05 s⁻¹

## U31C U45G
glucosamine-6-phosphate [1]
  kcat: 0.000845 ± 0.00014 s⁻¹
glucosamine-6-phosphate [2]
  KM: 1870 ± 570 µM
glucosamine-6-phosphate [4]
  self-cleavage kobs at 160 uM GlcN6P: 9.65e-05 ± 1.9e-05 s⁻¹
glucosamine-6-phosphate [5]
  self-cleavage kobs at 640 uM GlcN6P: 0.000189 ± 2.7e-05 s⁻¹
glucosamine-6-phosphate [6]
  self-cleavage kobs at 2500 uM GlcN6P: 0.000505 ± 6.4e-05 s⁻¹
glucosamine-6-phosphate [7]
  self-cleavage kobs at 10000 uM GlcN6P: 0.000713 ± 9.2e-05 s⁻¹

## G51U C61A
glucosamine-6-phosphate [1]
  kcat: < 1e-05 s⁻¹
glucosamine-6-phosphate [3]
  self-cleavage kobs at 40 uM GlcN6P: < 1e-05 s⁻¹
glucosamine-6-phosphate [4]
  self-cleavage kobs at 160 uM GlcN6P: < 1e-05 s⁻¹
glucosamine-6-phosphate [7]
  self-cleavage kobs at 10000 uM GlcN6P: < 1e-05 s⁻¹

## U46A U54A
glucosamine-6-phosphate [1]
  kcat: 0.00331 ± 0.00047 s⁻¹
glucosamine-6-phosphate [2]
  KM: 1420 ± 350 µM
glucosamine-6-phosphate [3]
  self-cleavage kobs at 40 uM GlcN6P: 0.000104 ± 1.9e-05 s⁻¹
glucosamine-6-phosphate [4]
  self-cleavage kobs at 160 uM GlcN6P: 0.000321 ± 8.4e-05 s⁻¹
glucosamine-6-phosphate [5]
  self-cleavage kobs at 640 uM GlcN6P: 0.000932 ± 0.00035 s⁻¹
glucosamine-6-phosphate [6]
  self-cleavage kobs at 2500 uM GlcN6P: 0.00181 ± 0.00029 s⁻¹
glucosamine-6-phosphate [7]
  self-cleavage kobs at 10000 uM GlcN6P: 0.00334 ± 0.00047 s⁻¹

## G51A C70G
glucosamine-6-phosphate [1]
  kcat: 3.48e-05 ± 7.3e-06 s⁻¹

## G40U G66A
glucosamine-6-phosphate [1]
  kcat: 0.00396 ± 0.00044 s⁻¹
glucosamine-6-phosphate [2]
  KM: 2220 ± 390 µM
glucosamine-6-phosphate [3]
  self-cleavage kobs at 40 uM GlcN6P: 8.13e-05 ± 1.2e-05 s⁻¹
glucosamine-6-phosphate [4]
  self-cleavage kobs at 160 uM GlcN6P: 0.000207 ± 5.2e-05 s⁻¹
glucosamine-6-phosphate [5]
  self-cleavage kobs at 640 uM GlcN6P: 0.000901 ± 0.00016 s⁻¹
glucosamine-6-phosphate [6]
  self-cleavage kobs at 2500 uM GlcN6P: 0.00208 ± 0.0004 s⁻¹
glucosamine-6-phosphate [7]
  self-cleavage kobs at 10000 uM GlcN6P: 0.00326 ± 0.00035 s⁻¹

## U30G C68A
glucosamine-6-phosphate [1]
  kcat: 2.01e-05 ± 5.2e-06 s⁻¹
